Target: T1, lymphotoxin-β (human, UniProt Q06643 4-244, N-linked oligosaccharide (about 3 kD lost on N-glycanase treatment))
T1 construct: Type II membrane protein; In the reimmunoprecipitation tests the protein had been eluted from SDS-PAGE gel slices; also called LT-β; LT-B
T1 sequence: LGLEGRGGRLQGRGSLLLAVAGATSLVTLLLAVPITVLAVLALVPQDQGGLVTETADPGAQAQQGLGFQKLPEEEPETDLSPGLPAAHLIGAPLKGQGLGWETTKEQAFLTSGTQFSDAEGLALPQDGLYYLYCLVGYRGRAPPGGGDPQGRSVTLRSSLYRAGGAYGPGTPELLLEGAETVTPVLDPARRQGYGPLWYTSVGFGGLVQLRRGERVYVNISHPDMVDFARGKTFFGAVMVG
Experiment: co-immunoprecipitation, then reimmunoprecipitation of separated bands from 35S-Met labeled II-23.D7 cells
Method: Reimmunoprecipitation of SDS-PAGE-separated antigens was carried out by excising labeled bands from gels, rehydrating them for 10 minutes in TBS, 0.2% SDS, and then dicing the gel slices into small pieces. The proteins were eluted by incubation in 1 ml TBS, 0.2% SDS for 8 hours at room temperature, with rotation. After elution the gel pieces were removed by centrifugation, and NP-40 was added to the supernatant to a final concentration of 2%. The eluted proteins were then immunoprecipitated as above, and reanalyzed by SDS-PAGE.

B1: lymphotoxin-α (ligand, human, UniProt P01374 35-205, looked up)
chain: LPGVGLTPSAAQTARQHPKMHLAHSTLKPAAHLIGDPSKQNSLLWRANTDRAFLQDGFSLSNNSLLVPTSGIYFVYSQVVFSGKAYSPKATSSPLYLAHEVQLFSSQYPFHVPLLSSQKMVYPGLQEPWLHSMYHGAAFQLTQGDQLSTHTDGIPHLVLSPSTVFFGAFAL
modifications: N-linked oligosaccharide
notes: mature; also called LT-α; LT
binding result: binds
